Data reported in patent publication US20230285578A1 (INDIANA UNIVERSITY RESEARCH AND TECHNOLOGY, published 2023).
Each block holds one binder with its values, some of them ahead of it. Starred links: 1 amine or outer side, 2 acyl side, 3 side chain; linkers in the order of their positions; H or OH if unused. Groups on a side chain read outwards from the residue. No end group written: not given here. *: point of attachment. C18 diacid = O=C(O)CCCCCCCCCCCCCCCCC(=O)*; γGlu = O=C(O)[C@H](CCC(=O)[*:2])N[*:1]; AEEA = NCCOCCOCC(=O)O

Legend:
Assay in all cases: cell-based or functional assay
PTH1 receptor [1] = biological target: T1, PTH1 receptor (UniProt Q03431 27-593, limits assumed)
T1 sequence (looked up): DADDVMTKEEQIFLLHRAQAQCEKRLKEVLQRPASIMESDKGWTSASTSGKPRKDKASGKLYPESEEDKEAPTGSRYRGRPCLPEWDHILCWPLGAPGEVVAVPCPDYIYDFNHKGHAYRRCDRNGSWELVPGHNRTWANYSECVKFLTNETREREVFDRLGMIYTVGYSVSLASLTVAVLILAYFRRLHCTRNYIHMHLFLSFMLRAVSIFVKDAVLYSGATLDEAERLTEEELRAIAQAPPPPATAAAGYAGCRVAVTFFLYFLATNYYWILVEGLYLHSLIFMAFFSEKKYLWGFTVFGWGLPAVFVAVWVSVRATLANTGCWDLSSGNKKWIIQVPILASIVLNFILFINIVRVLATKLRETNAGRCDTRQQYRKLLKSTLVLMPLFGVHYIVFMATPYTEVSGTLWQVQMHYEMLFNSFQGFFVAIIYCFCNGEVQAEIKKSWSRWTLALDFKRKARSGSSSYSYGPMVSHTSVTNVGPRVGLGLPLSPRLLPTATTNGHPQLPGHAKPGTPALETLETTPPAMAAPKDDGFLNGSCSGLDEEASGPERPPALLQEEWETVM

PTH1 receptor [2] = biological target: T1, PTH1 receptor; remark: listed apart in the source
PTH1 receptor [3] = biological target: T1, PTH1 receptor; remark: listed apart in the source
PTH1 receptor [4] = biological target: T1, PTH1 receptor; remark: listed apart in the source
PTH1 receptor [5] = biological target: T1, PTH1 receptor; remark: listed apart in the source
PTH1 receptor, Q03431 = biological target: T2, PTH1 receptor, Q03431
T2 chain: T1 sequence (looked up)

PTH1 receptor [6] = biological target: T1, PTH1 receptor; remark: listed apart in the source
PTH1 receptor [7] = biological target: T1, PTH1 receptor; remark: listed apart in the source

EC50 pM (cAMP Hunter Teriparatide Bioassay, CHO-K1 PTHR1 cells; FIG. 13A) (PTH1 receptor [1]): 10.7 pM | EC50 pM (cAMP Hunter Teriparatide Bioassay, CHO-K1 PTHR1 cells; FIG. 12) (PTH1 receptor [2]): 36.6 pM | EC50 pM (cAMP Hunter Teriparatide Bioassay, CHO-K1 PTHR1 cells; FIG. 8A) (PTH1 receptor [3]): 31 pM | EC50 pM (cAMP Hunter Teriparatide Bioassay, CHO-K1 PTHR1 cells; FIG. 11) (PTH1 receptor [4]): 10 pM | EC50 pM (cAMP Hunter Teriparatide Bioassay, CHO-K1 PTHR1 cells; FIG. 13B) (PTH1 receptor [5]): 19.3 pM
B1: PTH(1-33), K33(γE-2xOEG-γE-diacidC18) (peptide)
peptide: SVSEIQLMHNLGKHLNSMERVEWLRKKLQDVHX
modifications: Lys33 side chain acylated with γE-(miniPEG)2-γE-COC16H32CO2H; C-terminal free acid

EC50 pM (cAMP Hunter Teriparatide Bioassay, CHO-K1 PTHR1 cells; FIG. 12) (PTH1 receptor [2]): 41.7 pM
Binder: SVSEIQLMHNLGKHLNSXERVEWLRKKLQDVHX (site-specifically oxidised to methionine sulfoxide (position not given)) [SEQ ID NO: 110]

EC50 pM (cAMP Hunter Teriparatide Bioassay, CHO-K1 PTHR1 cells; FIG. 13A) (PTH1 receptor, Q03431): 80.3 pM
Binder: SVSEIELMHNLGKHLNSMERVEWLRKKLQDVHK([γGlu-miniPEG-miniPEG-γGlu-C18 diacid]) (ends and bridges not checked) [SEQ ID NO: 118]

Potency EC50 (cAMP-responsive luciferase reporter, HEK293 cells co-transfected with the PTH1 receptor) (PTH1 receptor [6]): 200 nM
B2: PTH(1-35)a, dK-1(γE-diacidC18), N(Me)G0, K35(γE-diacidC18) (peptide)
peptide: XXSVSEIQLMHNLGKHLNSMERVEWLRKKLQDVHNFX
modifications: d-Lys at position -1 with side chain acylated with γE-COC16H32CO2H; N-methyl-Gly (sarcosine) at position 0; Lys35 side chain acylated with γE-COC16H32CO2H; C-terminal amide

EC50 pM (cAMP Hunter Teriparatide Bioassay, CHO-K1 PTHR1 cells; FIG. 13B) (PTH1 receptor, Q03431): 14.3 pM
Binder: SVSEIQLMHNLGKHLDSMERVEWLRKKLQDVHK([γGlu-miniPEG-miniPEG-γGlu-C18 diacid]) (ends and bridges not checked) [SEQ ID NO: 122]

Potency EC50 (cAMP-responsive luciferase reporter, HEK293 cells co-transfected with the PTH1 receptor) (PTH1 receptor [6]): 45.5 nM
B3: PTH(1-34), dK-1(γE-diacidC18), N(Me)G0 (peptide)
peptide: XXSVSEIQLMHNLGKHLNSMERVEWLRKKLQDVHNF
modifications: d-Lys at position -1 with side chain acylated with γE-COC16H32CO2H; N-methyl-Gly (sarcosine) at position 0; C-terminal free acid

Potency EC50 (cAMP-responsive luciferase reporter, HEK293 cells co-transfected with the PTH1 receptor) (PTH1 receptor [6]): 2.9 nM
Binder: SVSEIQLMHNLGKHLNSMERVEWLRKKLQDVHNFX (Lys35 side chain acylated with γE-COC16H32CO2H (C18 diacid); C-terminal amide) [PTH(1-35)a, K35(γE-diacidC18)]

EC50 pM (cAMP Hunter Teriparatide Bioassay, CHO-K1 PTHR1 cells; FIG. 13B) (PTH1 receptor, Q03431): 43.1 pM
Binder: SVSEIQLMHNLGKHLNSMERVEWLRKKLEDVHK([γGlu-miniPEG-miniPEG-γGlu-C18 diacid]) (ends and bridges not checked) [SEQ ID NO: 124]

EC50 pM (cAMP Hunter Teriparatide Bioassay, CHO-K1 PTHR1 cells; FIG. 13A) (PTH1 receptor, Q03431): 10.9 pM
Binder: SVSEIQLMHDLGKHLNSMERVEWLRKKLQDVHK([γGlu-miniPEG-miniPEG-γGlu-C18 diacid]) (ends and bridges not checked) [SEQ ID NO: 120]

in vitro potency (fold reduction against the analog without A8) (PTH1 receptor [7]): ~100 fold
B4: PTH(1-33), A8, K33(γE-2xOEG-γE-diacidC18) (peptide)
peptide: SVSEIQLAHNLGKHLNSMERVEWLRKKLQDVHK([γGlu-AEEA-AEEA-γGlu-C18 diacid])-OH
modifications: N-terminus assumed
SMILES: CC[C@H](C)[C@H](NC(=O)[C@H](CCC(=O)O)NC(=O)[C@H](CO)NC(=O)[C@@H](NC(=O)[C@@H](N)CO)C(C)C)C(=O)N[C@@H](CCC(N)=O)C(=O)N[C@@H](CC(C)C)C(=O)N[C@@H](C)C(=O)N[C@@H](Cc1c[nH]cn1)C(=O)N[C@@H](CC(N)=O)C(=O)N[C@@H](CC(C)C)C(=O)NCC(=O)N[C@@H](CCCCN)C(=O)N[C@@H](Cc1c[nH]cn1)C(=O)N[C@@H](CC(C)C)C(=O)N[C@@H](CC(N)=O)C(=O)N[C@@H](CO)C(=O)N[C@@H](CCSC)C(=O)N[C@@H](CCC(=O)O)C(=O)N[C@@H](CCCNC(=N)N)C(=O)N[C@H](C(=O)N[C@@H](CCC(=O)O)C(=O)N[C@@H](Cc1c[nH]c2ccccc12)C(=O)N[C@@H](CC(C)C)C(=O)N[C@@H](CCCNC(=N)N)C(=O)N[C@@H](CCCCN)C(=O)N[C@@H](CCCCN)C(=O)N[C@@H](CC(C)C)C(=O)N[C@@H](CCC(N)=O)C(=O)N[C@@H](CC(=O)O)C(=O)N[C@H](C(=O)N[C@@H](Cc1c[nH]cn1)C(=O)N[C@@H](CCCCNC(=O)CC[C@H](NC(=O)COCCOCCNC(=O)COCCOCCNC(=O)CC[C@H](NC(=O)CCCCCCCCCCCCCCCCC(=O)O)C(=O)O)C(=O)O)C(=O)O)C(C)C)C(C)C
